Reference: patent publication US9102922B2, “Trehalose phosphorylases and their use in the biocatalytic production of trehalose-analogues and glycosyl phosphates” (Universiteit Gent, priority 2010, dated 2015)

Assays:
[1] = Phosphorolytic activity of the enzyme: specific activity, optimal pH and temperature; format: biochemical
Method: The phosphorolytic activity of the enzyme was determined using a discontinuous assay in which the released glucose is converted by glucose oxidase and peroxidase (GOD-POD)(Werner et al., 1970). The activity was assayed in 30 mM phosphate buffer at pH 7 and 60° C., using 30 mM disaccharide as substrate. The synthetic activity of the enzyme was determined using a discontinuous assay in which the released phosphate is complexed by molybdate and ascorbic acid (Gawronski and Benson, 2004). The activity was assayed in 50 mM MES buffer at pH 6 and 60° C., using 30 mM β-glucose-1-phosphate as donor and 500 mM of acceptor substrates.

[2] = Thermostability of the enzyme (residual activity after incubation); format: physicochemical; settings: 1 hour incubation at 65° C.
[3] = Kinetic parameters of TP variants on glucose as acceptor; format: biochemical; settings: Glc as acceptor; 60° C. and pH 6
Method: (§1) […] The synthetic activity of the enzyme was determined using a discontinuous assay in which the released phosphate is complexed by molybdate and ascorbic acid (Gawronski and Benson, 2004). […] Site-saturation mutagenesis was performed with degenerate primers (NNK) as described by […] et al. (2008), and random mutagenesis was performed with the GeneMorph II EZClone Domain Mutagenesis Kit (Stratagene) according to the manufacturer's instructions. The resulting DNA libraries were transformed into E. coli XL10-Gold, after which the cells were grown on solid LB medium in a Petri dish. Colonies were then transferred to 96-well microtiter plates containing liquid LB medium, in which enzyme expression was induced. Enzyme was extracted by the addition of lysis buffer with a liquid handling robot (Freedom EVO 200, Tecan) and the crude cell extracts were used for enzyme screening. Acceptor screening was performed with the phosphomolybdate assay described above. […] The clones with the highest activity were sequenced to identify the introduced mutations. The improved enzyme variants were then produced and purified as described for the wild-type enzyme, to allow a more detailed characterization.

[4] = Kinetic parameters of TP variants on galactose as acceptor; format: biochemical; settings: Gal as acceptor; 60° C. and pH 6
Method: as §1

[5] = Donor specificity: phosphorolysis of lactotrehalose by CsTP variants (release of βGal1P and βGlc1P); format: biochemical
[6] = substrate: OC[C@H]1OC(O)[C@H](O)[C@@H](O)[C@@H]1O; assay: Synthetic activity of TP on monosaccharide acceptors (released phosphate, molybdate assay); format: biochemical, Carboxydibrachium pacificum; settings: other: 60° C. and pH 6
[7] = Specific activity of TP variant on mannose as acceptor; format: biochemical; settings: compared with wild-type CsTP
Method: The activity was assayed in 30 mM phosphate buffer at pH 7 and 60° C., using 30 mM disaccharide as substrate. The synthetic activity of the enzyme was determined using a discontinuous assay in which the released phosphate is complexed by molybdate and ascorbic acid (Gawronski and Benson, 2004). […] Site-saturation mutagenesis was performed with degenerate primers (NNK) as described by […] et al. (2008), and random mutagenesis was performed with the GeneMorph II EZClone Domain Mutagenesis Kit (Stratagene) according to the manufacturer's instructions. The resulting DNA libraries were transformed into E. coli XL10-Gold, after which the cells were grown on solid LB medium in a Petri dish. Colonies were then transferred to 96-well microtiter plates containing liquid LB medium, in which enzyme expression was induced. Enzyme was extracted by the addition of lysis buffer with a liquid handling robot (Freedom EVO 200, Tecan) and the crude cell extracts were used for enzyme screening. Acceptor screening was performed with the phosphomolybdate assay described above. […] The clones with the highest activity were sequenced to identify the introduced mutations. The improved enzyme variants were then produced and purified as described for the wild-type enzyme, to allow a more detailed characterization.

[8] = 100 mM lactotrehalose, pH 7 and 60° C.

Row | Molecule | optimal pH for phosphorolytic activity [1] | optimal temperature for phosphorolytic activity [1] | specific activity ([1]; phosphorolysis of trehalose) | activity retained after incubation [2] | Km [3] | kcat [3] | kcat [4] | donor preference in phosphorolysis of lactotrehalose [5] | Ratio βGal1P/βGlc1P [5, 8] | Release of βGal1P [5, 8] | Release of βGlc1P [5, 8] | Km [6] | kcat [6] | kcat/Km [6] | change in specific activity on mannose as acceptor [7]
1 | TP from C. pacificum (Caldanaerobacter subterraneus subsp. tengcongensis MB4) (protein) MDMVKKTKKPIYPFEDWTIRETEFSIETNYRNETIFAQANGYMGMRGNFEEGYSGPDGTSLKGTYINGFYEIHDIIYPEGGYGFAKTGQTMLNVADSKIIELYVGEEKFDLLKGKIHFYERVLDMKKGCVERKIKWESPSGKIVNVKIKRIVSLQRQHLAVISFSVEPVNFTGNIKFVSAIDGDVRNITESEDVRVGSNLKGRVLETVERGTNGFEGWISQKTQKSNLSYTCAMKNELIGTEKYEVLNNVKEDRVEVAVAFKAEKNRVYILNKFISYYTSKDCDKSETMKLALEEVRRAQEDGFCKIEKEQEEFLQSFWEDADVVIEGDKALQQGIRFNMFHLLQSVGRDGKTNIAAKGLTGEGYEGHYFWDSDIYILPFFLYTKPEIAKALIMYRYNLLDAARNRAKELGHKGALYPWRTIDGPECSAYFPAGTAQYHINADIVYALKKYVEATNDLDFLYDYGCEIVFETARFWEDLGAYIPLKGNKFCINTVTGPDEYTALVDNNAYTNYMAKMNLEYAYDIANKMKKEVPEKYQKVASKLNLKDEEIASWKRAANNMYLPYSEELDIIPQDDSFLYKERITVDEIPEDQFPLLLHWHYLNIYRYQICKQPDVLLLMFLQREKFTIEQLKKNFDYYEPITTHDSSLSPAIFSILANEIGYTDKAYKYFMMTARMDLDDYNDNVKDGIHAAAMAGSWSAVVNGFGGMRVYTDELHFTPGLPEGWKMLSFNVKYKGRKINVKLTHEESVFTLLEGEPIEIFYFDRRVLIKSGENILKGYEEK | 7 | 80 °C | 39.8±3.5 U/mg | 100% | 3.5 mM | 59 s⁻¹ | 54 s⁻¹ | almost exclusively produces β-Glc1P | 0.04 | 0.13 U/mg | 3.0 U/mg | 3.5 ± 0.7 mM | 59 ± 5.4 s⁻¹ | 17000 ± 4000 M⁻¹ s⁻¹ | 
2 | K450N: CsTP with mutation K450N (protein, listed as Caldanaerobacter subterraneus) MDMVKKTKKPIYPFEDWTIRETEFSIETNYRNETIFAQANGYMGMRGNFEEGYSGPDGTSLKGTYINGFYEIHDIIYPEGGYGFAKTGQTMLNVADSKIIELYVGEEKFDLLKGKIHFYERVLDMKKGCVERKIKWESPSGKIVNVKIKRIVSLQRQHLAVISFSVEPVNFTGNIKFVSAIDGDVRNITESEDVRVGSNLKGRVLETVERGTNGFEGWISQKTQKSNLSYTCAMKNELIGTEKYEVLNNVKEDRVEVAVAFKAEKNRVYILNKFISYYTSKDCDKSETMKLALEEVRRAQEDGFCKIEKEQEEFLQSFWEDADVVIEGDKALQQGIRFNMFHLLQSVGRDGKTNIAAKGLTGEGYEGHYFWDSDIYILPFFLYTKPEIAKALIMYRYNLLDAARNRAKELGHKGALYPWRTIDGPECSAYFPAGTAQYHINADIVYALKNYVEATNDLDFLYDYGCEIVFETARFWEDLGAYIPLKGNKFCINTVTGPDEYTALVDNNAYTNYMAKMNLEYAYDIANKMKKEVPEKYQKVASKLNLKDEEIASWKRAANNMYLPYSEELDIIPQDDSFLYKERITVDEIPEDQFPLLLHWHYLNIYRYQICKQPDVLLLMFLQREKFTIEQLKKNFDYYEPITTHDSSLSPAIFSILANEIGYTDKAYKYFMMTARMDLDDYNDNVKDGIHAAAMAGSWSAVVNGFGGMRVYTDELHFTPGLPEGWKMLSFNVKYKGRKINVKLTHEESVFTLLEGEPIEIFYFDRRVLIKSGENILKGYEEK |  |  |  |  |  |  |  |  |  |  |  |  |  |  | significantly increases
